Data: paper doi:10.1101/2021.01.21.427698 (bioRxiv, 2021)

What was measured:
[1] = target: the molecule itself; experiment: spinning disk fluorescence microscopy of septin polymerisation
[2] = target: the molecule itself; experiment: negative-stain electron microscopy of septin polymerisation

B1: SEPT2-msfGFP human septin octamers containing SEPT9_i1 (complex)
chain 1: MSKQQPTQFINPETPGYVGFANLPNQVHRKSVKKGFEFTLMVVGESGLGKSTLINSLFLTDLYPERVIPGAAEKIERTVQIEASTVEIEERGVKLRLTVVDTPGYGDAINCRDCFKTIISYIDEQFERYLHDESGLNRRHIIDNRVHCCFYFISPFGHGLKPLDVAFMKAIHNKVNIVPVIAKADTLTLKERERLKKRILDEIEEHNIKIYHLPDAESDEDEDFKEQTRLLKASIPFSVVGSNQLIEAKGKKVRGRLYPWGVVEVENPEHNDFLKLRTMLITHMQDLQEVTQDLHYENFRSERLKRGGRKVENEDMNKDQILLEKEAELRRMQEMIARMQAQMQMQMQGGDGDGGALGHHV
chain 2: MAATDIARQVGEGCRTVPLAGHVGFDSLPDQLVNKSVSQGFCFNILCVGETGLGKSTLMDTLFNTKFEGEPATHTQPGVQLQSNTYDLQESNVRLKLTIVSTVGFGDQINKEDSYKPIVEFIDAQFEAYLQEELKIRRVLHTYHDSRIHVCLYFIAPTGHSLKSLDLVTMKKLDSKVNIIPIIAKADAISKSELTKFKIKITSELVSNGVQIYQFPTDDESVAEINGTMNAHLPFAVIGSTEELKIGNKMMRARQYPWGTVQVENEAHCDFVKLREMLIRVNMEDLREQTHTRHYELYRRCKLEEMGFKDTDPDSKPFSLQETYEAKRNEFLGELQKKEEEMRQMFVQRVKEKEAELKEAEKELHEKFDRLKKLHQDEKKKLEDKKKSLDDEVNAFKQRKTAAELLQSQGSQAGGSQTLKRDKEKKN
chain 3: MSVSARSAAAEERSVNSSTMVAQQKNLEGYVGFANLPNQVYRKSVKRGFEFTLMVVGESGLGKSTLINSLFLTDLYSPEYPGPSHRIKKTVQVEQSKVLIKEGGVQLLLTIVDTPGFGDAVDNSNCWQPVIDYIDSKFEDYLNAESRVNRRQMPDNRVQCCLYFIAPSGHGLKPLDIEFMKRLHEKVNIIPLIAKADTLTPEECQQFKKQIMKEIQEHKIKIYEFPETDDEEENKLVKKIKDRLPLAVVGSNTIIEVNGKRVRGRQYPWGVAEVENGEHCDFTILRNMLIRTHMQDLKDVTNNVHYENYRSRKLAAVTYNGVDNNKNKGQLTKSPLAQMEEERREHVAKMKKMEMEMEQVFEMKVKEKVQKLKDSEAELQRRHEQMKKNLEAQHKELEEKRRQFEDEKANWEAQQRILEQQNSSRTLEKNKKKGKIF
chain 4: MKKSYSGGTRTSSGRLRRLGDSSGPALKRSFEVEEVETPNSTPPRRVQTPLLRATVASSTQKFQDLGVKNSEPSARHVDSLSQRSPKASLRRVELSGPKAAEPVSRRTELSIDISSKQVENAGAIGPSRFGLKRAEVLGHKTPEPAPRRTEITIVKPQESAHRRMEPPASKVPEVPTAPATDAAPKRVEIQMPKPAEAPTAPSPAQTLENSEPAPVSQLQSRLEPKPQPPVAEATPRSQEATEAAPSCVGDMADTPRDAGLKQAPASRNEKAPVDFGYVGIDSILEQMRRKAMKQGFEFNIMVVGQSGLGKSTLINTLFKSKISRKSVQPTSEERIPKTIEIKSITHDIEEKGVRMKLTVIDTPGFGDHINNENCWQPIMKFINDQYEKYLQEEVNINRKKRIPDTRVHCCLYFIPATGHSLRPLDIEFMKRLSKVVNIVPVIAKADTLTLEERVHFKQRITADLLSNGIDVYPQKEFDEDSEDRLVNEKFREMIPFAVVGSDHEYQVNGKRILGRKTKWGTIEVENTTHCEFAYLRDLLIRTHMQNIKDITSSIHFEAYRVKRLNEGSSAMANGVEEKEPEAPEM
B1: binds [1]; binds [2].
